# From patent publication US20260258115A1 (MAPP BIOPHARMACEUTICAL, published 2026)
# Assays:
# [1] = target: RSV postfusion F (postF), F ΔFP (Respiratory Syncytial Virus, UniProt P03420 26-513); assay: BLI, IgG on anti-human IgG sensor, 100 nM antigen, 1:1 fit
# [2] = target: RSV prefusion F (preF), DS-Cav1 (Respiratory Syncytial Virus, UniProt P03420 26-513); assay: as above
# RSV F on RSV-A2 virus = RSV F on RSV-A2 virus (Respiratory Syncytial Virus (RSV-A2), UniProt P03420 26-574); assay: cell-based or functional assay
Binder,Kd [1],Kd [2],Neutralization IC50 (RSV subtype A) (RSV F on RSV-A2 virus)
"ADI-41527 (antibody, V domains shown, also called Ab 799; Antibody Number 799) VH: EVQLLESGGGLVQPGGSLRLSCAASGFTFTSYWMSWVRQAPGQGLEWVATIKQDGSEKYYVDSVKGRFTISRDNAKNSLYLQMNSLGAEDTAVYYCARDMYCSTTTCYFFETYYYNGMDVWGQGTTVTVSS VL: DIRLTQSPSSVSASVGDRVTITCRASQVTSTWLAWYQQNPGKAPKLLIYAASRLQSGVPSRFSGSGSGTEFTLTISSLQPEDFATYYCQQANSFPLTFGGGTKVEIK",0.337 nM,0.712 nM,> 25 µg/mL
"ADI-41497 (antibody, V domains shown) VH: QVQLVESGGGVVQPGRSLRLSCAASGFTFSNHAMHWVRQAPGKGLEWLSFISYDGGVNFYRDSVKGRFTISRDNSKNTLYLQMSSLRPEDTAVYYCARDRVGRVVGASYYLDYWGRGALVTVSS VL: QSVVTQPPSVSVAPGQTASITCGGKHIGSKSVHWYQQKPGQSPVLVVHDDSDRPSGILERFSGSNSGNTATLTINRVEAGDEADYYCQVWDNASDHPYVFGPGTKVTVL",0.268 nM,1.44 nM,> 25 µg/mL
"ADI-41504 (antibody, V domains shown, also called Ab 783; Antibody Number 783) VH: EVQLLESGPGLLKTSETLSLTCTVSDGSISGYYWTWIRQPPGKGLECIGYISYSGSTNYSPSLKSRVTISVDTSKNQFSLKLSSVTAADTAVYYCAKIGGYCNPTKCYGWFDPWGQGTLVTVSS VL: QPVLTQPPSVSGAPGQRVTISCTGSSSNIGAGYDVHWYQQLPGTAPKLLIFGNTNRPSGVPDRFSGSKSGTSASLAITGLQAEDEAAYYCQSYDSSLFYVVLGGGTKLTVL",0.508 nM,2.8 nM,> 25 µg/mL
"ADI-41508 (antibody, V domains shown, also called Ab 786; Antibody Number 786) VH: QVQLVQSGAEVRKPGASVKVSCKASGYGFRSYDLTWVRQAPGKGLEWVGWISAYSGGTNYAQTLQGRVTMTTDTSTSTAYMELRSLGPDDTAVYYCARAGLYGSGSPDGFDSWGQGTLVTVSS VL: SYELTQPPSVSVSPGQTASITCSGDKLGDKYASWYQQRPGQSPVLVISQDTKRPSGIPERFSGSTSGNTAILTISGTQAMDEADYYCLAWDSSTAWVFGGGTKLTVL",0.555 nM,4.15 nM,0.1 µg/mL
"ADI-41528 (antibody, V domains shown, also called Ab 800; Antibody Number 800) VH: EVQLVESGGGVVQPGRSLRLSCAASGFTFSSYAMHWVRQAPGKGLEWVAVISFDGSSDYYADSVKGRFTISRDSSKNTLYLRMNSLRAEDTAVYYCARRAVEYSIYNNDAFDVWGQGTTVTVSS VL: SYELTQPPSVSVSPGQTASITCSGDKLGNKFTFWYQQKSGQSPVLVIYQETKRPSGIPERFSGSNSGNTATLTISGTQSMDEADYYCQAWDSSTAFFGGGTKLTVL",0.348 nM,2.28 nM,> 25 µg/mL
"ADI-41526 (antibody, V domains shown) VH: QVQLVQSGAEVKKPGASVKVSCEASGYTFTDYYMHWVRQAPGQGLEWMGWINPNSGVTKIAQNFQGRVTMTRDTSITTAYMDLSRLRSDDTAVYYCARVVDGDYDNWFDFWGQGTLVTVSS VL: SYVLTQPPSASGTPGQRVTISCSGSTSNIGTNTVNWYQQPPGMAPKLLIYANNQRPSGVPDRFSGSKSGTSASLAISGLQSEDEADYHCAVWDDSLPGWVFGGGTKLTVL",0.336 nM,0.301 nM,> 25 µg/mL
"ADI-41495 (antibody, V domains shown) VH: QVQLVQSGGGLVEPGGSLRLSCAASGFTFSNTWMNWVRQAPGKGLTWVGRIKRKTDFGTSDYAAPVKGRFTISRDDSKNMVFLQMNSLKIEDTGVYYCTTHPRPYLDTTAVVYWGQGTLVTVSS VL: QPVLTQPHSVSESPGKTVTISCIGSSGSITSNYVQWFQQRPGSAPTTVIYEDDQRPSGVPDRFSGSIDSSSNSASLTISGLKTEDEADYYCQSYHHTNPWVFGGGTKLTVL",57.3 nM,77.2 nM,> 25 µg/mL
"ADI-41499 (antibody, V domains shown) VH: EVQLVESGGVVVQPGGSLRLSCAASGFSFDDYTMYWVRQAPEKGLEWISLISWNGGVTYYPDSVKGRFTVSRDNNKNSLYLQMDSLRPEDSAFYYCAKESLESSGHFLDYWGQGTLVTVSS VL: QPVLTQSRSVSGSPGQSVTISCIGTNSDVGGYHYVSWFQHHPGKAPKLMIYDVSRRPSGVPARFSGSKSGNTASLSISGLRAEDEADYYCCSFAGTYTPYVFGTGTKLTVL",0.297 nM,1.99 nM,> 25 µg/mL
"ADI-41492 (antibody, V domains shown) VH: QVQLVQSGAEVRKPGSSVKVSCKASGGTFNSFVISWVRQAPGQGLEWMGRIIPILATVDYAQKFQGRVTITADKSTTTAYMELSGLTSEDTAVYYCARDPPRWDTTMADYYYQGMDVWGQGTTVTVSS VL: DIRVTQSPASLSAFVGDRVTISCRASQSIGSFLNWYQQKPGKAPKLLIYAASSLQSGVPSRFSGSGSGTDFTLAISSLQPEDFATYYCQQSYRSTPTFGGGTKVEIK",54.8 nM,182 nM,> 25 µg/mL
"ADI-41498 (antibody, V domains shown, also called Ab 778; Antibody Number 778) VH: EVQLLESGGGLVKPGGSLRLSCAASGFIFSDYAMNWVRQTPGKGLEWVSSISDSSAYKYYTGSVSGRFTISRDNAKNSLYLQMNDLRPEDTAVFYCARGQWRCSGASCYSPFDSWGQGTLVTVSS VL: SYELTQPPSVSVAPGQTARIPCGGNNIESKNVHWYQQKPGQAPVLVVYDDSDRPSGIPERFSGSNSGSTATLTISRVEAGDEADYYCHVWHRSGDLREVFGSGTKVTVL",0.22 nM,1.22 nM,> 25 µg/mL
"ADI-41493 (antibody, V domains shown, also called Ab 773; Antibody Number 773) VH: QVQLVQSGAEVKKPGESLKISCKGSGYSFTKYWIGWVRQLPGKGLEWMGIIYPGDSETIYSPSFQGQVTISADKSVSTAYLQWSSLKASDTAMYYCARQTFVFWGESHDAFDIWGQGTTVTVSS VL: QPVLTQPPSASGSPGQSVTISCTGTSSDVGAHNYVSWYQQHPGKAPKLMIYEVSKRPSGVPDRFSGSKSGNTASLTVSGLQAEDEADYYCSSYAGSNNWVFGGGTKLTVL",0.372 nM,0.45 nM,> 25 µg/mL
"ADI-41487 (antibody, V domains shown, also called Ab 768; Antibody Number 768) VH: QVQLVESGGGLVKPGGSLRLSCAASGFTFSTYTMNWVRQAPGKGLEWVSSISGSSAYIYYADSVKGRFTISRDNAKNSLFLQMNSLRAEDTAVYYCARLQGLVLPAVMPSYYYYSGMDVWGQGTTVTVSS VL: not shown",0.754 nM,3.12 nM,> 25 µg/mL
"ADI-41529 (antibody, V domains shown) VH: EVQLVQSGAEVRRPGSSVKVSCKASGGTLDTDSISWVRQVPGQGLVWVGGVIPILGSVVYARKFQGRVTITADGSTSTAYMELRSLRSEDTAMYYCASQFYDFRRGYFDAFDIWGQGTTVTVSS VL: ETTLTQSPGILSLSPGERATLSCRATQTVISNYINWYQQKPGQAPRLLIYGASSRATGIPDRFSGSGSGTDFTLTISRLEPEDFAVYYCQRYDSSPPGFTFGPGTKVDIK",0.351 nM,1.03 nM,> 25 µg/mL
"ADI-41502 (antibody, V domains shown, also called Ab 781; Antibody Number 781) VH: QVQLVQSGAEVKKPGSSVKVSCKASGGPFSSDAMSWVRQAPGQGLEWMGGIIPILGSATYAQKFKGRVTIAADESTSTSYMELSGLKYEDTAVYYCARPFYDPLTGYFDTFNVWGQGTTVTVSS VL: QSVLTQPRSVPGSPGQSVTISCTGTSGDVGGYNYVSWYQQHPGKAPKLVIYDVTKRPSGVPDRFSGSKSGNRASLTISGLQAEDEADYYCCSYAGSQTGYVFGTGTKVTVL",0.308 nM,1.34 nM,> 25 µg/mL
"ADI-41486 (antibody, V domains shown, also called Ab 767; Antibody Number 767) VH: QVQLQQWGAGLLKPSETLSLTCSVYGGSFSGYYWSWIRQPPGKGLEWIGEINHSGSTNYNPSLKSRITISVDTSKNQFSLKLNSVTAADTAVYYCARGDYAFVTFDYWGQGTLVTVSS VL: QSVLTQPASVSGSPGQSITISCTGTSSDVGGYNYVSWYQQHPGKAPKLMIYEVSNRPSGVSNRFSGSKSGNTASLTISGLQAEDEADYYCSSYTSSSTPVFGGGTKLTVL",0.448 nM,2.86 nM,> 25 µg/mL
"ADI-41494 (antibody, V domains shown, also called Ab 774; Antibody Number 774) VH: EVQLVESGGGLVQPGRSLRLSCTTSGFTFGDYAVTWVRQAPGKGLEWIGIMKSKTYRGTTDYAASLRGRFSISRDDSKSIAYLQMTSLKSEDTGVYYCVRGHDYGDPFDYWGQGTLVTVSS VL: QSVLTQPASVSGSPGQSITISCTGGSSDVGYYNYVSWYQQHPGKAPKLLIYDVNNRPSGVSDRFSGSKSGNTASLTISGLQPEDEADYYCSSYTRSRTWVFGGGTKLTVL",0.44 nM,2.61 nM,> 25 µg/mL
"ADI-41503 (antibody, V domains shown) VH: EVQLLESGGGLVQPGGSLRLSCAASGFTFSDFPLSWVRQAPGKGLVWVSAISSSGGDTYYADSVKGRFTISRDSSKNALYLQMNSLRAEDTAVYYCAKGQELLRPYYYGMDVWGQGTTVTVSS VL: QSALIQPASVSGSPGQSITISCTGTSSDVGGYNFVSWYQQHPGKAPKLMIFEVSNRPSGVSHRFSGSKSGNTASLTISGLQAEDEADYYCSSCTSRFTYVFGTGTKLTVL",0.493 nM,3.14 nM,> 25 µg/mL
"ADI-41496 (antibody, V domains shown) VH: QVQLVQSGAEVKKPGASVKVSCKASGYTFTSDDINWVRQATGQGLEWMGWMNPNSGDTGYAQKFQGRVTMTRDTSISTAYMELSSLRSEDTAVYYCARVRIQCSGGRCSYWFFDLWGRGTLVTVSS VL: QSALTQPASVSGSPGQSITISCIGTSSDVGNYNLVSWYQHHPGKAPKVMIYEVNERPSGVSNRFSGSKSGNTASLTISGLQAEDEADYYCCSYAGRSTWVFGGGTKLTVL",1.37 nM,1.65 nM,> 25 µg/mL
"ADI-41530 (antibody, V domains shown, also called Ab 802; Antibody Number 802) VH: QVQLVESGAEVKKPGASVKVSCRASGYTFSAYDINWVRQAPGQGLEWVGWMNPNSGNTGYALRFQGRVTMTRDTSINTAYMELSSLRSDDTAVYYCAAQLWYPNWGQGTLVTVSS VL: SYELTQPPSVSVGLGQTASITCGGNNIGSKSVHWYQQKPGQAPTLVIYRDTNRPSGIPERFSGSNSENTATLTISRAQAGDEADFYCQVSDNYSWVFGGGTKLTVL",0.355 nM,1.91 nM,> 25 µg/mL
